# Data taken from patent publication US20240325557A1, “TREATMENT OF CANCER” (INNATE PHARMA, priority 2020, published 2024).
# Tests used:
# [1] = target: Rat Nectin-4 on CHO cells (rat); assay: flow cytometry titration on CHO cells expressing rat Nectin-4, median MFI (PE)
# [2] = target: monomeric huNectin4-his-BirA protein (human) (UniProt Q96NY8); assay: SPR (Biacore T200), antibody captured on Protein A, monomeric huNectin4-his-BirA injected
Binder,EC50 (read off the curve) [1] [µg/mL],Kd [2] [nM],koff [2] [s⁻¹],kon [2] [M⁻¹ s⁻¹]
"antibody 5E7 (antibody, human IgG1, V domains shown) VH: QVQLQQPGAELVKPGASVKLSCKASGYIFTSYWMHWVKQRPGQGLEWIGEIDPSDSYTNYNQKFKGKATLTLDKSSSTTYMQLSSLTSEDSAVYYCVRGYGNYGDYWGQGTTLTVSS VL: DVVMTQAAFSNPVTLGTSASISCRSSKSLLHSNGITYLYWYLQKPGQSPQLLIYQMSNLASGVPDRFSSSGSGTDFTLRISRVEAEDVGVYYCAQNLELPWTFGGGTKLEIK",0.1,,,
"antibody 10B12 (antibody, human IgG1, V domains shown) VH: QVQLQQPGAELVKPGASVKLSCKASGYTFTSYWMHWVKQRPGQGLEWIGEIDPSDSYTNYNQKFKGKATLTVDKSSSTAYMQLSSLTSEDSAVYYCVRGYGNYGDYWGQGTTLTVSS VL: DIVMTQAAFSNPVTLGTSASISCRSSKSLLHSNGITYLYWYLQKPGQSPQLLIYQMSNLASGVPDRFSSSGSGTDFTLRISRVEAEDVGVYYCAQNLELPWTFGGGTKLEIK",0.1,,,
"Enfortumab (ASG-22ME) (antibody, from a related filing, V domains shown) VH: EVQLVESGGGLVQPGGSLRLSCAASGFTFSSYNMNWVRQAPGKGLEWVSYISSSSSTIYYADSVKGRFTISRDNAKNSLSLQMNSLRDEDTAVYYCARAYYYGMDVWGQGTTVTVSS VL: DIQMTQSPSSVSASVGDRVTITCRASQGISGWLAWYQQKPGKAPKFLIYAASTLQSGVPSRFSGSGSGTDFTLTISSLQPEDFATYYCQQANSFPPTFGGGTKVEIKR",,13.7,0.0047,340000
